To fix the notation:
B1: Wnt inhibitory factor 1 (Homo sapiens), Q9Y5W5 (parent)
chain: MARRSAFPAAALWLWSILLCLLALRAEAGPPQEESLYLWIDAHQARVLIGFEEDILIVSEGKMAPFTHDFRKAQQRMPAIPVNIHSMNFTWQAAGQAEYFYEFLSLRSLDKGIMADPTVNVPLLGTVPHKASVVQVGFPCLGKQDGVAAFEVDVIVMNSEGNTILQTPQNAIFFKTCQQAECPGGCRNGGFCNERRICECPDGFHGPHCEKALCTPRCMNGGLCVTPGFCICPPGFYGVNCDKANCSTTCFNGGTCFYPGKCICPPGLEGEQCEISKCPQPCRNGGKCIGKSKCKCSKGYQGDLCSKPVCEPGCGAHGTCHEPNKCQCQEGWHGRHCNKRYEASLIHALRPAGAQLRQHTPSLKKAEERRDPPESNYIW
partner: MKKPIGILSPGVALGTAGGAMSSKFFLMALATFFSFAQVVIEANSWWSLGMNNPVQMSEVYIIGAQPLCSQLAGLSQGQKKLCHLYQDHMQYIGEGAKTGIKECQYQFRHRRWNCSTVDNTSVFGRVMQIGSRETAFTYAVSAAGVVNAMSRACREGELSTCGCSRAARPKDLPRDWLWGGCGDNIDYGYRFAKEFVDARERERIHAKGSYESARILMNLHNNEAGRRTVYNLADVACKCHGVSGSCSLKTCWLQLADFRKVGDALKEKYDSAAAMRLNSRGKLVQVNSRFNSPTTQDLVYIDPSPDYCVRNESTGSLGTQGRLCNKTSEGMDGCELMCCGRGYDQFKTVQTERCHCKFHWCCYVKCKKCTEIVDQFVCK
B2: Wnt inhibitory factor 1 (Homo sapiens), Q9Y5W5 (parent)
chain: B1 chain

In the first experiment the parent is B1. To be noted: with wnt5a_mouse Wnt5a.
With W15R, the “effect of a mutation on the interaction” value is listed as “increasing interaction”.

The variants in another experiment derive from B2. To be noted: with wnt3a_mouse Wnt3a.
Regarding W15R, the “effect of a mutation on the interaction” value was “decreasing interaction”.

Values taken from IntAct's records for PubMed 22986341.
